Experiment [1] concerns the target Humicola insolens 43 kD endoglucanase (Humicola insolens).
In experiment [2] the target is Variant I: V221S+N222S+Q223T (Humicola insolens).
Experiment [3] has as its target Variant II: V240P+Q241P (Humicola insolens).

Turning to “Savinase® protease (from UniProt P29600) (enzyme)”, the Residual Activity, % DAA (25° C., 5d) after storage in liquid detergent with Savinase protease was 63% in experiment [1], 83% in experiment [2] and 81% in experiment [3].

(Values after US5792641.)
